Assay [1] deals with T1, human TNFR2 on the cell membrane (human, UniProt P20333 23-461).
T1 construct: whole, on cells; One molecule for all cell formats; also called TNFR2-CHO cells; CHO-TNFR2
T1 sequence (looked up): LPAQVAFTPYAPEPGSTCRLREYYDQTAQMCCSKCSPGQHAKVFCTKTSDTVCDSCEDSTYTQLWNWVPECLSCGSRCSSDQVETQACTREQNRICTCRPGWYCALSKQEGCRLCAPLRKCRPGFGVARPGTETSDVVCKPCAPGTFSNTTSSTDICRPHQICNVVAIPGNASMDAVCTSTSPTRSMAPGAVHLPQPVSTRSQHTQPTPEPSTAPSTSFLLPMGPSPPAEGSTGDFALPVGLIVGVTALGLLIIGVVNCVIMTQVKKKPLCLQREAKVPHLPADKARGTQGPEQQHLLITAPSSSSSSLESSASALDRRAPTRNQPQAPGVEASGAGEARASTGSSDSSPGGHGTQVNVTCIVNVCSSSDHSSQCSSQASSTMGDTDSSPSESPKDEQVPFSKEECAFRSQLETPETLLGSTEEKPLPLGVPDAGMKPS
Nature of the assay: flow cytometry, CHO-TNFR2 cells. The gist of the method: (§1)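 CHO cells were transfected with a pcDNA3.4 vector carrying human TNFR2, taken through drug selection and sorted as single clones to give a line that stably overexpresses the receptor. These cells were placed in 96-deep-well plates, incubated with serially diluted antibodies, washed and then stained with a fluorescent anti-IgG secondary antibody. Flow cytometry was run on a Beckman CytoFLEX, and EC50 values were derived from the dilution series.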

For assay [2], the target named is T1, human TNFR2 on the cell membrane. Put plainly: flow cytometry on CHO-TNFR2 cells. In outline: as §1
For assay [3] the target is unchanged. Put plainly: flow cytometry on human PBMC, CD3+ T cells. The protocol:
Purified anti-human TNFR2 human-mouse chimeric monoclonal antibodies were co-cultured with PBMC cells (Oricells) and stained. The binding of the antibody was analyzed by flow cytometry. The specific steps are as follows: PBMC cells (Oricells) were counted, centrifuged, resuspended, then added to a 96-deep well plate, and the supernatant was discarded. Diluted anti-TNFR2 monoclonal antibodies were added.

The target in assay [4] is T2, TNFR2-His (Sino Biological, 10417-H08H, NP_001057.1 Met1-Asp257, with multi-histidine tag expressed on … (human, UniProt P20333 23-257)).
T2 construct: range 1-257; Bought protein; also called recombinant human TNFR2 protein; TNFR2-His antigen; not shown: C-terminal multi-histidine tag
T2 sequence (looked up): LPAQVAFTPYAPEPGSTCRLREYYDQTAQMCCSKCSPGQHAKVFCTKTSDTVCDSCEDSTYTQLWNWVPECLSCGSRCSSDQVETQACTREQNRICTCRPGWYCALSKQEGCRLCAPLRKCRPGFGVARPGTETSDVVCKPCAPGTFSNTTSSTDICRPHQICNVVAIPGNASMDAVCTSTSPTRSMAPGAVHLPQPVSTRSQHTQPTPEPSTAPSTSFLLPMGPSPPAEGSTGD
Put plainly: BLI, antibody captured on AHC probe, TNFR2 in solution. In outline: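 Bio-layer interferometry on an Octet in Basic Kinetics mode. Antibodies at 50 nM in Q buffer (10 mM PBS pH 7.4, 0.02% Tween 20, 0.2% BSA) were held on antibody-capture sensors. The sensors were then placed in recombinant human TNFR2 diluted 2-fold in Q buffer from a top concentration of 100 nM. Kon, koff and Kd come from these kinetic association measurements.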

In assay [5] the target is T2, TNFR2-His (Sino Biological, 10417-H08H, …). Nature of the assay: ELISA, plate coated with TNFR2-His (first test). In outline:
(§2)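 EC50 values come from antibody dilution series tested by ELISA. Plates were coated with recombinant human TNFR2 bearing a C-terminal His tag and blocked before the serially diluted antibodies were added. Binding was detected with an enzyme-labelled anti-IgG secondary antibody, TMB development and a microplate reader.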

Assay [6] has the same target. Nature of the assay: ELISA, plate coated with TNFR2-His (second test). In outline:
as §2

In assay [7] the target is T1, human TNFR2 on the cell membrane. Nature of the assay: competition flow cytometry, TNFR2 positive cells, TNFα fusion protein at fixed concentration. The protocol: Purified anti-human TNFR2 human-mouse monoclonal antibodies were co-cultured with TNFR2 positive cells and stained. The antibody binding intensity was analyzed by flow cytometry. The specific steps are as follows: cells were counted, centrifugated, resuspended, then added to a 96-deep well plate, and the supernatant was discarded. Gradient diluted anti-TNFR2 antibodies and TNFα fusion protein of fixed concentration were added. After incubation and wash, the secondary antibody PE-streptavidin (Biogen, 405203) was added for incubation, and the samples were detected using Beckman CytoFLEX.

For assay [8], the target named is T2, TNFR2-His (Sino Biological, 10417-H08H, …). Put plainly: competition ELISA, coated TNFR2-His, biotin-labeled TNFα fusion protein at fixed concentration. As to the method:
(§3) The ELISA plate was coated with TNFR2-His antigen (Sino Biological, 10417-H08H, Assessment #NP_001057.1. Met1-Asp257, with multi-histidine tags expressed on C-terminus) and blocked, added with the gradient diluted TNFR2 monoclonal antibodies and biotin-labeled TNFα fusion protein of fixed concentration for incubation, then added with the secondary antibody Ap-Strepavidin (Herobio, 510401) for incubation. After development, the detection was performed using microplate reader.

Assay [9] has the same target. Put plainly: competition ELISA on coated TNFR2-His against biotin-labeled TNFα fusion protein at fixed concentration. The protocol: as §3

“And” between values parts separate entries of the source, which are not always exact repeats. Equal values may be shown once.

B1: human-mouse chimeric TNFR2 monoclonal antibody 12E12-hFc (antibody, V domains shown)
VH: EVQLQQSGAELVKPGASVKLSCTVSGFNIKDFYIHWVKQRPEQGLEWIGRVDPEDGNTEYAPNFQDRATMTTDTSSNTAYLQLSSLTSVDTAVYYCSTWDGFSYFDYWGLGTTLTVSS
VL: QAVVTQESALTTSPGETVTLTCRSSTGPVTTNNYANWVQEKPDHLFTGLIGGTNDRAPGVPARFSGSLIGDKTALTITGTQTEDEAVYFCALWYRNHWVFGGGTKLTVL
notes: Mouse V regions of clone 12E12 with human constant regions; also called human-mouse chimeric 12E12 antibody
Regarding B1, the EC50 in [1] is 0.195 nM; in [2], 0.0291 µg/mL; in assay [5], 0.0454 µg/mL and 0.304 nM; in [6], 0.0346 µg/mL and 0.232 nM. In assay [3], the “percent of cells in the upper right quadrant (Q1-UR, CD3+ and anti-human IgG Fc+)” value amounted to 45.6%. Binding in [4] was put at a Kd of 3.27 nM. Moreover, the koff in assay [4] worked out at 0.00216 s⁻¹. The molecule further displayed an association rate constant (kon) in assay [4] of 659000 M⁻¹ s⁻¹.

B2: human-mouse chimeric TNFR2 monoclonal antibody 27F6-hFc (antibody, V domains shown)
VH: EVQLQQSGTVLARPGASVKMSCKTSGYTFTSYWMHWVKQRPGQGLEWIGTIYPGNSDTSYNQKFKGKAKLTAVTSASTAYMELNSLTNEDSAVFYCTRENLLLRSYFFDYWGQGTTLTVSS
VL: DIVMTQSPASLAVSLGQRATISCKASQSVDYDGDSYLNWYQQKPGQPPKLLIYAASNLPSGIPARFSGSGSGTDFTLNIHPVEEEDAATYYCQQSNEDPRTFGGGTKLEIK
notes: Mouse V regions of clone 27F6 with human constant regions
For the molecule B2, the “percent of cells in the upper right quadrant (Q1-UR, CD3+ and anti-human IgG Fc+)” value in assay [3] amounted to 42.3%. The IC50 is 0.179 µg/mL in assay [7]; 0.644 µg/mL in assay [8]; 0.674 µg/mL and 4.52 nM in assay [9].

The values above are taken from patent publication US20240392024A1 (SHANGHAI CELGEN BIO PHARMACEUTICAL, published 2024).
